T1: GST-Obsc_(6316–6345) (Rattus norvegicus)
T1 chain: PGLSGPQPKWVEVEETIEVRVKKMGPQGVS


Legend:
[1] = target: T1, GST-Obsc_(6316–6345); assay: SPR
[2] = target: GST-Obsc_(6231–6260) (Rattus norvegicus); assay: SPR

fold decrease in kon against wild type [2] | Binder | also measured
– | sAnk1-MBP I102A (domain or fragment) VKGSLCFVLKHIHQELDKELGESEGLSDDEETISTRVVRRRVFLKGDELQNIPGEQVTEEQFTDEQGNIVTKKAIRKVVRQVDSSGAIDTQQHEEVELRGSGLQPDLIEGRKGAQIVKRASLKRGKQ | fold reduction in kon against wild type [1]: ~3 fold
~2 fold | sAnk1-MBP F71A (domain or fragment) VKGSLCFVLKHIHQELDKELGESEGLSDDEETISTRVVRRRVALKGDELQNIPGEQVTEEQFTDEQGNIVTKKIIRKVVRQVDSSGAIDTQQHEEVELRGSGLQPDLIEGRKGAQIVKRASLKRGKQ | –
– | sAnk1-MBP (wild type, sAnk1 residues 29–155) (domain or fragment) VKGSLCFVLKHIHQELDKELGESEGLSDDEETISTRVVRRRVFLKGDELQNIPGEQVTEEQFTDEQGNIVTKKIIRKVVRQVDSSGAIDTQQHEEVELRGSGLQPDLIEGRKGAQIVKRASLKRGKQ | Kd [1]: ~130 nM
~2 fold | sAnk1-MBP I103A (domain or fragment) VKGSLCFVLKHIHQELDKELGESEGLSDDEETISTRVVRRRVFLKGDELQNIPGEQVTEEQFTDEQGNIVTKKIARKVVRQVDSSGAIDTQQHEEVELRGSGLQPDLIEGRKGAQIVKRASLKRGKQ | –
